Data published in paper PMC8376909, “Identification of a transcription factor, PunR, that regulates the purine and purine nucleoside transporter punC in E. coli”.

T1: PunR (YdhB), LysR-family regulator (Escherichia coli K-12 (ASKA collection …, UniProt P0ACR2 1-310))
T1 sequence: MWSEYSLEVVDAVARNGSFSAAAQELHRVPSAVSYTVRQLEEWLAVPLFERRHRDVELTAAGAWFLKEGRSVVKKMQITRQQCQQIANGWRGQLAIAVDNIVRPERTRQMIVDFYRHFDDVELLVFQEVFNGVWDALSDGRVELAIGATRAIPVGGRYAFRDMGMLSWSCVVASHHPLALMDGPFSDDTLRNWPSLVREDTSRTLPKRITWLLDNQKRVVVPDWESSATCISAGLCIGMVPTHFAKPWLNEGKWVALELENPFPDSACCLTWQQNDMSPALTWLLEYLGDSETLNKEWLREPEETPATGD


What was measured:
[1] = target: T1, PunR (YdhB), LysR-family regulator; assay: EMSA; 1 mM adenine; PunR up to 1.5 uM; 10 mM MgSO4; FP: 20 mM Tris-HCl pH 7.5, 0.1 M NaCl, 0.5 mM EDTA, 10 mM MgSO4, 2 mM DTT, 5 ug/ml herring sperm DNA, 10 nM DNA, 30 C 1 h; EMSA: PBS pH 8, 10 mM MgSO4, 2 mM DTT, 0.25 mM adenine (Methods; 1 or 10 mM in Results and Fig. S3), 100 nM DNA, 30 C 1 h then 25 C 1 h, 6% native PAGE Tris-glycine with 0.25 mM adenine; settings: protein: recombinant; tags: N-terminal His6; chain copies: 4; label: 5' 6-carboxyfluorescein on printed strand; blunt
[2] = target: T1, PunR (YdhB), LysR-family regulator; assay: fluorescence polarization; 0.35 mM adenine; 10 mM MgSO4; FP: 20 mM Tris-HCl pH 7.5, 0.1 M NaCl, 0.5 mM EDTA, 10 mM MgSO4, 2 mM DTT, 5 ug/ml herring sperm DNA, 10 nM DNA, 30 C 1 h; EMSA: PBS pH 8, 10 mM MgSO4, 2 mM DTT, 0.25 mM adenine (Methods; 1 or 10 mM in Results and Fig. S3), 100 nM DNA, 30 C 1 h then 25 C 1 h, 6% native PAGE Tris-glycine with 0.25 mM adenine; settings: protein: recombinant; tags: N-terminal His6; chain copies: 4; label: 5' 6-carboxyfluorescein on printed strand; blunt

Binder | binding result [1] | Kd [2]
GguR binding site 26 bp (negative control) (dsDNA) DNA 1: ACCCCCAGTCATCAGACAACCTCCCC DNA 2: GGGGAGGTTGTCTGATGACTGGGGGT | no binding | 
PunR-binding site 36 bp upstream of punC (dsDNA) DNA 1: TGGGGACTGGTTTCAAAAATTTTGCAGGCAGAGGGG DNA 2: CCCCTCTGCCTGCAAAATTTTTGAAACCAGTCCCCA |  | 27 nM
